Publication PMC8575500

Target: C12-AcpP (Escherichia coli acyl carrier protein AcpP, wt, carrying a C12 acyl chain) (Escherichia coli) (UniProt P0A6A8)
Sequence of UniProt P0A6A8 (P0A6A8 whole entry): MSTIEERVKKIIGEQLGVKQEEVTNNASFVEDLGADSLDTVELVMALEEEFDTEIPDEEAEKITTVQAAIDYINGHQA

Row | Substance | completion of the reaction after 10 min, from the remaining C12-AcpP by HPLC [%]
1 | Escherichia coli FabF K65A/R127A/K128A (enzyme) | 44
2 | Escherichia coli FabF R127A/K128A/R206A (enzyme) | 13
3 | Escherichia coli FabF K65A/R68A/K69A (enzyme) | 15
4 | Escherichia coli FabF K65A/K69A (enzyme) | 65
5 | Escherichia coli FabF R206A (enzyme) | 39
